For test [1], the target named is T1, PRO87299(ECD)-Fc (human, UniProt Q7Z6A9 31-155).
T1 construct: Reduced apparent molecular weight 55 kDa; also called PRO87299-Fc; PRO87299(ECD)-Fc chimera; not shown: human Fc domain
T1 sequence: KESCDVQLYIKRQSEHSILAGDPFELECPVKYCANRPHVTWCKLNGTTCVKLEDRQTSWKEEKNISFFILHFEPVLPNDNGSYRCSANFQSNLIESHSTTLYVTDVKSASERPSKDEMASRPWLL
Put plainly: SPR (Biacore), PRO87299(ECD)-Fc amine coupled at ~8000 RU. As to the method: (§1) In this experiment, PRO87299(ECD)-Fc and CD28 family members hCTLA4-Fc, hPD-1-Fc, hICOS-Fc or hCD28-Fc were amine coupled to a Biacore™ CM5 chip at approximately 8000 response units. Each was then assayed for its ability to bind HVEM. An HVEM-Fc protein was made by ligating the nucleic acids encoding amino acids 1-199 of HVEM to a Fc, resulting in a HVEM-Fc fusion protein. This HVEM-Fc was cloned into an a expression vector which would produce the fusion protein when stably transfected into CHO cells. […] The result was 2 μg/ml of HVEM-Fc injected at 5 μl/min bound selectively to PRO87299 and not to the other member of the CD28 family members tested. The activity of each CD28 family member was confirmed positive by testing the binding response to their known ligands (data not shown) (CD28 family members and ligands were purchased from R&D systems).
In general terms: In SPR one partner is held on a chip, and binding of the other changes the refractive index at the surface.

Test [2] concerns the target T2, hCD28-Fc (human, UniProt P10747 19-152).
T2 construct: Bought; not shown: Fc; not described
Nature of the test: SPR (Biacore), hCD28-Fc amine coupled at approximately 8000 RU. As to the method:
as §1

Test [3] concerns the target T3, hPD-1-Fc (human, UniProt Q15116 25-167).
T3 construct: Bought; not shown: Fc; not described
Put plainly: SPR (Biacore), hPD-1-Fc amine coupled at approximately 8000 RU. As to the method: as §1

The target in test [4] is T4, LIGHT expressed on transfected cells (Homo sapiens (Human), UniProt O43557 1-240).
T4 construct: also called LIGHT (expressed protein)
Put plainly: radioligand binding to transfected cells, Scatchard analysis. Here is the method: (§2) PRO87299 binds to HVEM in a cell based assay. In this experiment human 293 cells (ATCC CCL 1573) are grown to confluence in tissue culture plates in medium such as DMEM supplemented with fetal calf serum and optionally, nutrient components and/or antibiotics. About 10 μg pRK5-HVEM DNA is mixed with about 1 μg DNA encoding the VA RNA gene [Thimmappaya et al., Cell, 31:543 (1982)] and dissolved in 500 μl of 1 mM Tris-HCl, 0.1 mM EDTA, 0.227 M CaCl₂. To this mixture is added, dropwise, 500 μl of 50 mM HEPES (pH 7.35), 280 mM NaCl, 1.5 mM NaPO₄, and a precipitate is allowed to form for 10 minutes at 25° C. The precipitate is suspended and added to the 293 cells and allowed to settle for about four hours at 37° C. The culture medium is aspirated off and 2 ml of 20% glycerol in PBS is added for 30 seconds. The 293 cells are then washed with serum free medium, fresh medium is added and the cells are incubated for about 5 days. Alternatively, about 10 μg pRK5-HVEM DNA is mixed with LipofectAMINE™ (Gibco/BRL, Gaithersburg Md.) reagent and transfection performed by following the manufacturer's instructions. After the 293 cells were transfected with HVEM, they were incubated with 1125 radiolabled PRO87299(ECD)-Fc and binding allowed to occur. The radiolabled PRO87299 was then competed off with unlabled PRO87299(ECD)-Fc and the estimated number of total binding sites and the dissociation constant (Kd) were determined by Scatchard analysis. FIG. 17(A) is a Scatchard plot and FIG. 17(B) is a displacement plot showing PRO87299(ECD)-Fc binding to HVEM transiently transfected cells. […] Using this methodology, the affinity of HVEM/LIGHT/PRO87299 interactions were determined.

The target in test [5] is T5, PRO87299 expressed on cells (human, UniProt Q7Z6A9 31-289).
T5 construct: also called PRO87299 transfected cells; 293 cells expressing PRO87299
The test is described as above. As to the method: as §2

Test [6] addresses T6, PRO87299/LIGHT (both expressed on the same transfected cells) (human, UniProt Q7Z6A9 31-289; O43557 1-240).
T6 construct: Two proteins co-expressed on cells as the target of I-125-HVEM-Fc; not a defined complex
Nature of the test: radioligand binding to cells expressing both PRO87299 and LIGHT, Scatchard analysis.

Test [7] concerns the target T7, hICOS-Fc (human, UniProt Q9Y6W8 21-141).
T7 construct: Bought; not shown: Fc; not described
T7 sequence (looked up): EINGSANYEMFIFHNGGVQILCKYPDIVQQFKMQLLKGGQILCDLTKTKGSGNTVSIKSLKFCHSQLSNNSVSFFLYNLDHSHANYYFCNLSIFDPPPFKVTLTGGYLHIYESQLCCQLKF
Nature of the test: SPR (Biacore), hICOS-Fc amine coupled at approximately 8000 RU. Here is the method:
as §1

For test [8], the target named is T8, hCTLA4-Fc (human, UniProt P16410 37-162, limits assumed).
T8 construct: Bought; not shown: Fc; not described
T8 sequence (looked up): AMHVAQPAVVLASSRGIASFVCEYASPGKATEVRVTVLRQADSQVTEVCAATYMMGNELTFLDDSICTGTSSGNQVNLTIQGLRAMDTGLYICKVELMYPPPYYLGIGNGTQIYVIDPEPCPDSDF
Nature of the test: SPR (Biacore), hCTLA4-Fc amine coupled at approximately 8000 RU. Here is the method: as §1

Test [9] concerns the target T9, HVEM expressed on transfected 293 cells (Homo sapiens (Human), UniProt Q92956 39-283).
T9 construct: Transient transfection of human 293 cells with pRK5-HVEM; also called HVEM transfected cells; 293 cells expressing HVEM
T9 sequence: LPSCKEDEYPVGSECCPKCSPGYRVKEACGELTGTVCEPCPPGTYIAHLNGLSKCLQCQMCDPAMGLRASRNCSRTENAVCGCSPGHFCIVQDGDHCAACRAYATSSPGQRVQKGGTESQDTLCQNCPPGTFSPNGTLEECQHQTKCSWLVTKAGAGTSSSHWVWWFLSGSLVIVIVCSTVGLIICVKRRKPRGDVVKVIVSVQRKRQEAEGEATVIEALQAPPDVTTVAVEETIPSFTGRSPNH
Put plainly: radioligand binding to transfected cells, Scatchard analysis. As to the method:
as §2

Test [10] has as its target T1, PRO87299(ECD)-Fc. Nature of the test: SPR (Biacore), PRO87299-Fc amine coupled at ~9800 RU. As to the method:
PRO87299 interaction to HVEM is not blocked by LIGHT. PRO87299-Fc was amine coupled to a Biacore™ CM5 sensor chip at ˜9800 response units. LIGHT (purchased from Alexis™, Cat. #552-018-C010) was incubated at the increasing concentrations with 4 nM HVEM for 1 hr. […] LIGHT activity was confirmed by binding to immobilized HVEM-Fc on a CM5 sensor chip (data not shown). […] All binding sensograms were run in random order and in duplicate. Response units were recorded as the difference between baseline and 15 seconds before the end of a 2 min injection at 5 μl/min. Concentrations are based on molecular weights of 25 kDa for LIGHT monomer and 55 kDa for monomer HVEM.

The term Kd denotes the constant that tells how readily two partners part at equilibrium. The low end stands for higher affinity, the high end for lower affinity.

T3 sequence (Q15116 25-167 limits assumed): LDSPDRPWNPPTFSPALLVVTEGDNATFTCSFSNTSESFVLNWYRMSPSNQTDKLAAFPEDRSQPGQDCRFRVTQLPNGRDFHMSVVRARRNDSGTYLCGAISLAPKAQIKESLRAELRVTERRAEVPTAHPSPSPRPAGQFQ
T2 sequence (P10747 19-152 limits assumed): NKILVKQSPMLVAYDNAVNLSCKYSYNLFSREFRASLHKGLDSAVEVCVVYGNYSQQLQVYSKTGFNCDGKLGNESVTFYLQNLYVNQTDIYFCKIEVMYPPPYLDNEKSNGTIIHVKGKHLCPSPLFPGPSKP

B1: HVEM-Fc (Fc fusion)
chain: LPSCKEDEYPVGSECCPKCSPGYRVKEACGELTGTVCEPCPPGTYIAHLNGLSKCLQCQMCDPAMGLRASRNCSRTENAVCGCSPGHFCIVQDGDHCAACRAYATSSPGQRVQKGGTESQDTLCQNCPPGTFSPNGTLEECQHQTKCSWLVTKAGAGTSSS
notes: Produced in stably transfected CHO cells, Protein A purified; also called HVEM-Fc fusion protein; I-125-HVEM-Fc; not shown: Fc
B1: the binding result in test [1] was “binds”; in test [2] it was “no binding (tested: 2 µg/ml)”; in [3] it was “no binding (tested: 2 µg/ml)”; in test [7], “no binding (tested: 2 µg/ml)”; in test [8], “no binding (tested: 2 µg/ml)”. In addition, the equilibrium dissociation constant (Kd) in [4] came out at 7 nM; in test [5], 5.5 nM; in test [6] it was 0.5 nM.

B2: LIGHT-FLAG (ligand)
chain: GEMVTRLPDGPAGSWEQLIQERRSHEVNPAAHLTGANSSLTGSGGPLLWETQLGLAFLRGLSYHDGALVVTKAGYYYIYSKVQLGGVGCPLGLASTITHGLYKRTPRYPEELELLVSQQSPCGRATSSSRVWWDSSFLGGVVHLEAGEEVVVRVLDERLVRLRDGTRSYFGAFMV
notes: Radio-iodinated; also called I-125-LIGHT-FLAG; not shown: FLAG tag
For B2, the Kd in test [9] was found to be 2.5 nM.

B3: LIGHT (soluble, purchased from Alexis, Cat. #552-018-C010) (ligand)
chain: B2 chain
notes: Bought soluble protein; Monomer molecular weight 25 kDa used for concentrations
In the case of B3, in test [10], the binding result is “no binding”.

These data come from patent US20090081229A1 (published 2009).
